B1: Hammerhead Ribozyme (parent)
chain: ACCGGAUGUGCUUUCCGGUCUGAUGAGUCCGUGAGGACGAAACAG

In the data set the parent is B1. Kind of data set: self-cleavage, relative activity (ratio to wild type); higher = more cleavage; co-transcriptional.
ACCGGGUGUGCUUUCCGGUCUGAUGAGUCCGUGAGGACGGAACAG [A6G A40G]: the self-cleavage amounted to 0.213.

Consider ACCGACUGUGCUUUCCGGUCUGAUGAGUCCGUGAGGACGAAACAG [G5A A6C], for which the self-cleavage came to 0.483.

For ACCGCAUGUGCUUUCUGGUCUGAUGAGUCCGUGAGGACGAAACAG [G5C C16U], the self-cleavage was found to be 0.883.

ACCGGAUGUGCUAUCCGGUCUGAUGAGUCCGUGAGGACGAAGCAG [U13A A42G]: the self-cleavage is 0.344.

With ACCGGUUGAGCUUUCCGGUCUGAUGAGUCCGUGAGGACGAAACAG [A6U U9A], the self-cleavage was determined as 0.617.

ACCGGAUGUGCUUUCCGGUCUGAUGAUUCCGUGAUGACGAAACAG [G27U G35U]: the self-cleavage was found to be 0.345.

ACCGGAUGUGUUUGCCGGUCUGAUGAGUCCGUGAGGACGAAACAG [C11U U14G]: the self-cleavage came out at 0.765.

With ACCGGCUGUGCUUUCCGGUCUGAUGAGACCGUGAGGACGAAACAG [A6C U28A], the self-cleavage worked out at 0.191.

With ACCGGCUGUGCUUGCCGGUCUGAUGAGUCCGUGAGGACGAAACAG [A6C U14G], the self-cleavage was 0.508.

Consider UCCGGAUGUGCUUUCCGGUCUGAUAAGUCCGUGAGGACGAAACAG [A1U G25A], for which the self-cleavage was determined as 0.32.

On to AUCGGAUGUGCUUUCCGUUCUGAUGAGUCCGUGAGGACGAAACAG [C2U G18U], for which the self-cleavage stood at 1.16.

Consider ACCGGACGUGCUUUCCGGCCUGAUGAGUCCGUGAGGACGAAACAG [U7C U19C], for which the self-cleavage was 0.526.

As for ACCGGAUGUGCUUUCCGGUCGGAUGAGUCCGUGAGGACGAAAUAG [U21G C43U], the self-cleavage amounted to 0.317.

On to ACCGGAUGUGCUUUCCGGUCUGAUGAGUAUGUGAGGACGAAACAG [C29A C30U], for which the self-cleavage amounted to 0.41.

ACCGGAUGUGCUUUCCGGUCUGAUGAGUCCUUGAGGACGGAACAG [G31U A40G]: the self-cleavage is 0.382.

For the variant ACCGGAUGCGCUUUCCGGUCUGAUGAGUCCGUGAGGGCGAAACAG [U9C A37G], the self-cleavage amounted to 1.61.

Take ACCGGAUGUGCUUUCCGCUCUGAUUAGUCCGUGAGGACGAAACAG [G18C G25U]: the self-cleavage was 0.284.

Turning to ACCGGAUGUGCUUUCCGGUCUGAUGAGUCCGUGAGGCCGAACCAG [A37C A42C], the self-cleavage turned out to be 0.241.

In the case of ACUGGAUGUGCUUUCCGUUCUGAUGAGUCCGUGAGGACGAAACAG [C3U G18U], the self-cleavage is 0.453.

Regarding ACCGGAUGUGCUUUCCGGUCUGAUGAGUCCGUGAGGACGAAACUA [A44U G45A], the self-cleavage came out at 0.607.

Regarding ACCGGAUGUGAUUUCCUGUCUGAUGAGUCCGUGAGGACGAAACAG [C11A G17U], the self-cleavage was determined as 1.

On to ACCGGAUGUGCUUUCCGGUCUGAUGAGUCAGUGAGAACGAAACAG [C30A G36A], for which the self-cleavage was found to be 0.573.

For ACUGGACGUGCUUUCCGGUCUGAUGAGUCCGUGAGGACGAAACAG [C3U U7C], the self-cleavage is 0.743.

Consider ACCGGAUGUGCUUUCCGGUCUGAUGGGUCCGUGAGGACGAAACAG [A26G], for which the self-cleavage was 0.379.

Turning to ACCGGAUGUCCUUUCCGGUCUGAUGAGUCCGUGAGGACGGAACAG [G10C A40G], the self-cleavage is 0.398.

For AACGGAUGUGCUUUCCGGUCUGAUGAGUCCGUGAGGACGAAACAC [C2A G45C], the self-cleavage is 0.42.

For ACCGGAUGUGCUUUCCGGUCUGAUGGGUCCGUGCGGACGAAACAG [A26G A34C], the self-cleavage worked out at 0.346.

As for ACCGGAUGUGCCUUCCGGUCUGAUGAGUCCGUGAUGACGAAACAG [U12C G35U], the self-cleavage was 0.834.

In the case of ACCGGAUGUGCUUUCCGGUCUGAUGAUUCCGUGAGGACCAAACAG [G27U G39C], the self-cleavage worked out at 0.314.

Regarding ACCGGAUGUGCUUUCCGGUCUGAAGAGUCCGUGAGGCCGAAACAG [U24A A37C], the self-cleavage turned out to be 1.03.

For ACCGGCUGUGCUUUCGGGUCUGAUGAGUCCGUGAGGACGAAACAG [A6C C16G], the self-cleavage was 0.372.

Take ACCGGAUAUGCUUUCCGGUCAGAUGAGUCCGUGAGGACGAAACAG [G8A U21A]: the self-cleavage turned out to be 0.475.

As to ACCGGAUGUGCUUUCCGGUCUGAUGCCUCCGUGAGGACGAAACAG [A26C G27C], the self-cleavage stood at 0.303.

With ACCGGAUGUGCUUUCCGGUCUGAUGAGUGCGUGAGGACGAAACAG [C29G], the self-cleavage worked out at 0.766.

For ACCGGAUGUGCUUUCCGGUCUGAUGAGUCCGUGAUGACGAACCAG [G35U A42C], the self-cleavage was found to be 0.384.

On to ACCGGAUCUGCUUUCCGGUCUGAUGAGUCCGUGAGGACGUAACAG [G8C A40U], for which the self-cleavage is 0.286.

Consider ACCGGAUGUGCUUUCCGGUCUGAUGAGUGCGUGAGGACGAAUCAG [C29G A42U], for which the self-cleavage amounted to 0.394.

Consider ACCGGAUGUGCUUUCAGGUCUGAUGAGUCCGUGAGGACGAAUCAG [C16A A42U], for which the self-cleavage worked out at 0.27.

For the variant ACAGGAUGUGCUUUCCGGUCUGAUGAGACCGUGAGGACGAAACAG [C3A U28A], the self-cleavage was 0.311.

For the variant ACCGGAUGUGCUUUCCGGUCAGAUGAGUCCGUGAGGACGAUACAG [U21A A41U], the self-cleavage worked out at 0.325.

For ACCGGAUGUUCUUUCCGGUCUGAUGAGUCCGUGAGGACGGAACAG [G10U A40G], the self-cleavage was determined as 0.36.

On to ACGGGAUGUGCUUUCCGUUCUGAUGAGUCCGUGAGGACGAAACAG [C3G G18U], for which the self-cleavage is 0.535.

On to ACCGGAUGCGCUUUCCGUUCUGAUGAGUCCGUGAGGACGAAACAG [U9C G18U], for which the self-cleavage was 0.738.

For ACCAGAUGUGCUUUCCGGUCUGAUGAGUACGUGAGGACGAAACAG [G4A C29A], the self-cleavage was determined as 0.374.

For ACCGGAUGUGCUUUCCGGUCUGAUGAGUCCGUGAGGACAAAACCG [G39A A44C], the self-cleavage is 0.39.

Turning to ACUGGAUGUGCUUUCCGGUCUGAUGAGUCCGGGAGGACGAAACAG [C3U U32G], the self-cleavage was 0.452.

Consider ACCGGAUGUGCUUUACGGUCUGAUGAAUCCGUGAGGACGAAACAG [C15A G27A], for which the self-cleavage stood at 0.589.

With ACCGGAUGUGCUUUCCAGUCUGAUGAGUCCGGGAGGACGAAACAG [G17A U32G], the self-cleavage amounted to 0.613.

Turning to ACCGGAUGUGCUUUCCGGUCUGAUAAGUCCGUGAGGACGAAACAC [G25A G45C], the self-cleavage was 0.447.

Consider ACCGGAUGUGCUUUCCGGUCUGAUGAGUCCGUGAGGGCGAAACUG [A37G A44U], for which the self-cleavage turned out to be 0.595.

Take ACCGGAUGUGCUUUCCGGUUUGAUGAGUCCGUGAGGGCGAAACAG [C20U A37G]: the self-cleavage worked out at 0.565.

As to ACCGGAUGUUCUUUCCCGUCUGAUGAGUCCGUGAGGACGAAACAG [G10U G17C], the self-cleavage is 0.649.

Turning to ACCGGAUGUUCUUUCCAGUCUGAUGAGUCCGUGAGGACGAAACAG [G10U G17A], the self-cleavage was determined as 0.957.

For ACCGGAUGUGCUUUCCGGUCUGAGGAGUCCGUGAGGACGAAACAG [U24G], the self-cleavage was 1.03.

Turning to ACCGGAUGUGCUUUCCGGUCUGAUUAGUCCGUGACGACGAAACAG [G25U G35C], the self-cleavage is 0.259.

As to ACCGGAAGUGCUUUCCGGUCUAAUGAGUCCGUGAGGACGAAACAG [U7A G22A], the self-cleavage amounted to 0.291.

Turning to UCCGGAUGUGCUUUCCGUUCUGAUGAGUCCGUGAGGACGAAACAG [A1U G18U], the self-cleavage came out at 0.475.

The values are drawn from the RNAGym collection of RNA variant scans (doi:10.7554/elife.80360).
